Laboratory results as given in publication PMC3167817.

Assays:
[1] = molecular target: EGFR on A549 cells (endogenous) (human) (UniProt P00533); assay: cell binding, radiolabeled aptamer; conditions: A549 cells; binding decreased by EGFR shRNA and 1 uM EGF; 2'-fluoro pyrimidines; Filter binding: 1 nM radiolabeled RNA, PBS + 0.01% BSA, 15 min, 37 C (5 mM DTT for monomer); CL4sc background subtracted; pull-down: 200 nM aptamer on A549 …
[2] = molecular target: EGFR on NIH/EGFR cells (human) (UniProt P00533); assay: cell binding, radiolabeled aptamer; conditions: apparent Kd; parental NIH3T3 not bound; 2'-fluoro pyrimidines; Filter binding: 1 nM radiolabeled RNA, PBS + 0.01% BSA, 15 min, 37 C (5 mM DTT for monomer); CL4sc background subtracted; pull-down: 200 nM aptamer on A549 …

GCCUUAGUAACGUGCUUUGAUGUCGAUUCGACAGGAGGC [CL4]
Kd [1]: 38 nM
Kd [2]: 60 nM
